# Assay results as given in patent publication US20210253678A1 (CUREAB, published 2021).
# B1: mG2-2 (G2-2 variable regions with murine IgG2a heavy chain and human Igk light chain constant regions) (antibody)
# heavy: EVQLLQSGGGVVQPGRSLRLSCAASGFTFSSYGMSWVRQAPGKGLEWVAVISYDGSNKYYADSVKGRFTISRDNSKNTLYLQMNSLRAEDTAVYYCAREGSAGMDVWGQGTTVTVSSASTTAPSVYPLAPVCGDTTGSSVTLGCLVKGYFPEPVTLTWNSGSLSSGVHTFPAVLQSDLYTLSSSVTVTSSTWPSQSITCNVAHPASSTKVDKKIEPRGPTIKPCPPCKCPAPNLLGGPSVFIFPPKIKDVLMISLSPIVTCVVVDVSEDDPDVQISWFVNNVEVHTAQTQTHREDYNSTLRVVSALPIQHQDWMSGKEFKCKVNNKDLPAPIERTISKPKGSVRAPQVYVLPPPEEEMTKKQVTLTCMVTDFMPEDIYVEWTNNGKTELNYKNTEPVLDSDGSYFMYSKLRVEKKNWVERNSYSCSVVHEGLHNHHTTKSFSRTPGK
# light: DIQMTQPSSLSASPGASASLTCTLRSDISVGFHRIYWYQQKPGSPPQYLLRYKSDSDKQQGSGVPSRFSGSKDASANAGILLISGLQSDDEADYYCVIWHTSGVVFGGGTKVEIKRTVAAPSVFIFPPSDEQLKSGTASVVCLLNNFYPREAKVQWKVDNALQSGNSQESVTEQDSKDSTYSLSSTLTLSKADYEKHKVYACEVTHQGLSSPVTKSFNRGEC
# notes: also called murine G2-2
# B2: G2-2 (human IgG1 heavy chain and human Igk light chain constant regions) (antibody)
# heavy: not shown
# light: B1 light
# notes: scFv clone from a human scFv library, cloned as human IgG1/kappa; also called G2-2-HRP (horse radish peroxidase labeled); anti-rGOLPH antibody G2-2
# B3: G2-4 (antibody, V domains shown)
# VH: QVQLEESGGGLVQPGGSLRLSCATSGFTFTDYYMSWVRQPPGKALEWLGFIRNKAKGYTTEYSASVKGRFTISRDNSQSILYLQMNTLRAEDSATYYCARDPSTNYWYFDVWGAGTTVTVSS
# VL: DIVLTQSPSSLAVSAGEKVTMTCKSSQSLLNSRTRKNYLAWYQQKPGQSPKLLIYWASTRESGVPDRFTGSGSGTDFTLTISSVQAEDLAVYYCKQSYNLYTFGGGTKLEIKR
# B4: G2-2opti (IgG2a) (antibody, V domains shown)
# VH: QVQLVQSGGGVVQPGRSLRLSCAASGFTFSSYGMHWVRQAPGKGLEWVAVISYDGSNKYYADSVKGRFTISRDNSKNTLYLQMNSLRAEDTAVYYCAREGSAGMDVWGQGTTVTVSS
# VL: QAVLTQPSSLSASPGASASLTCTLRSDISVGFHRIYWYQQKPGSPPQYLLRYKSDSDKQQGSGVPSRFSGSKDASANAGILLISGLQSDDEADYYCVIWHTSGVVFGGGTKLTVL
# notes: 'a chimeric human/murine version with a murine CH2 and CH2'
# B5: G2-1 (human IgG1 heavy chain and human Igk light chain constant regions) (antibody, V domains shown)
# VH: EVQLLESGGGVVQPGRSLRLSCAASGFTFSSYAMSWVRQAPGKGLEWVSVISYDGSNKAYADSVKGRFTISRDNSKNTLYLQMNSLRAEDTAVYYCARGRSYYDSSGYLFDYWGQGTLVTVSS
# VL: DIQMTQPHSVSESVGKTVIITCTGGGGSIDTNYVQWYQQRPGSAPVTLIYEDDQRPFGVPDRFSAAIDTSSSSASLTISGLTAEDEATYYCQSSHSTAVVFGGGTKVEIKR
# notes: scFv clone from a human scFv library, cloned as human IgG1/kappa; also called G2-1-HRP (horse radish peroxidase labeled)
# What was measured:
# [1] = target: T1, human GP73 (GOLM1, GOLPH2) in Alexander (PLC/PRF/5) cells (human, UniProt Q8NBJ4 1-401); test: immunofluorescence on fixed, saponin treated Alexander cells
# T1 construct: Endogenous protein of the cell line; cells were fixed with paraformaldehyde and treated with saponin
# T1 sequence: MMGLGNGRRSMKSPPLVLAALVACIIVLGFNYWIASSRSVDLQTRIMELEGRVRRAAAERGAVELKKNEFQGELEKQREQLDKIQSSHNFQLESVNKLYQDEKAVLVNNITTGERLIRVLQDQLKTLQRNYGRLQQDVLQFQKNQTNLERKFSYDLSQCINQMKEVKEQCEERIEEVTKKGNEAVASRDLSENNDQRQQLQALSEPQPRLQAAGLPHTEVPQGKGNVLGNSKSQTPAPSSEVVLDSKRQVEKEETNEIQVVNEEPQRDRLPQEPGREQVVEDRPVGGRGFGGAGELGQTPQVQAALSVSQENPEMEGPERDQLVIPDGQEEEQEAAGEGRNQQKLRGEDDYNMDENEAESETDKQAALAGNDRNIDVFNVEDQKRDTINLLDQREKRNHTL
# Protocol: Alexander cells were grown on 4 chamber slides, fixed with 4% paraformaldehyde, treated with 0.2% Saponin and blocked with 10% bovine serum albumin. Cells were incubated for one hour with goat anti-GP73 (santa cruz sc-48010) and mG2-2 and washed. Bound antibodies were stained with anti goat Alexa Fluor 488 (abeam ab150129) and anti mouse Alexa Fluor 647 (abeam ab150115). Nuclei were treated with DAPI.
# [2] = target: T2, GP73 (endogenous human GP73 on HEK 293, HuH7, JHH4 and DU145 cells and in human tissue sections); test: immunohistochemistry, paraffin section of hepatitis liver, anti-mouse secondary
# T2 construct: One entry for all cell lines and tissues; also called GOLM1; GOLPH2
# T2 antigen: T1 sequence
# Excerpt: FIG. 5 Immunohistochemical staining of tissues with the anti-rGOLPH antibody G2-2 and controls. Paraffin embedded tissues of A normal liver B hepatitis liver C and D hepatocellular carcinoma (HCC) were stained with murine G2-2 (mG2-2) (A,B,C) or anti-GP73 antibody M06A (Sigma) followed by secondary staining with an anti-mouse antibody and examined under a microscope by 40× magnification as described in Example 3.
# Paraffin embedded tissues of normal liver, hepatitis liver, hepatocellular carcinoma (HCC), endometrium carcinoma, ovarian carcinoma, melanoma, small cell lung cancer and gastric cancer were stained with murine G2-2 (mG2-2) or mouse anti GOLPH (M06A Sigma) followed by secondary staining with an anti-mouse IgG. Nuclei were stained with hematoxylin (blue), cytoplasma was stained with hemalum-eosin.
# [3] = target: T2, GP73 (endogenous human GP73 on HEK 293, …); test: flow cytometry of antibody left on the surface of HuH7 cells (panel title) after loading at 4°C; detection with APC anti-human Fab
# Protocol: Cells were incubated with 10 ug/ml of G2-2 or G2-1 for one hour at 4° C. in PBS. Unbound G2-2 was washed away and cells were transferred to tissue culture medium with 10% FCS and then either warmed to 37° C. to allow internalization or maintained at 4° C. The internalization process was stopped after 15, 30, 60 or 120 minutes by transferring the cells into ice-cold buffer with 0.1% […]. Cells were stained with APC-conjugated goat anti-human Fab (Jackson Immuno) and analyzed by FACS. The residual levels of cell surface G2-2 was calculated based on the mean fluorescence intensity (MFI).
# [4] = target: T3, peptide AA 36-55 of GP73 (rGP73), SSRSVDLQTRIMELEGRVRR (human, biotinylated in the ELISAs (position not given)); test: SPR (Biacore), fit for 1:1 binding, mean of measurements 1 + 2, GP73 peptide
# T3 construct: also called GP73 peptide; peptide rGP73 (GP73 AA 36 to 55)
# T3 peptide: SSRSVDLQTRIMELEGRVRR
# [5] = target: T2, GP73 (endogenous human GP73 on HEK 293, …); test: flow cytometry, surface staining of HEK 293 cells, axis anti-mouse APC
# Protocol: Detection of surface staining of cells is depicted as continuous line, only secondary antibody control detection is depicted as dashed line as described in Example 4.
# Different human and murine cell lines e.g. HuH7, JHH4, HEK293, HEK293-GP73-myc and Ramos were tested by Flow cytometry analysis for expression of GP73 on their cell surface and binding of G2-2, G2-1 and G2-4. […]
# [6] = target: T4, sGP73-10×His, encompassing GP73 AA56 to 401 (human, UniProt Q8NBJ4 56-401); test: ELISA on coated sGP73-His, anti mouse HRP secondary
# T4 construct: also called sGP73-His; sGP73-HIS
# T4 sequence: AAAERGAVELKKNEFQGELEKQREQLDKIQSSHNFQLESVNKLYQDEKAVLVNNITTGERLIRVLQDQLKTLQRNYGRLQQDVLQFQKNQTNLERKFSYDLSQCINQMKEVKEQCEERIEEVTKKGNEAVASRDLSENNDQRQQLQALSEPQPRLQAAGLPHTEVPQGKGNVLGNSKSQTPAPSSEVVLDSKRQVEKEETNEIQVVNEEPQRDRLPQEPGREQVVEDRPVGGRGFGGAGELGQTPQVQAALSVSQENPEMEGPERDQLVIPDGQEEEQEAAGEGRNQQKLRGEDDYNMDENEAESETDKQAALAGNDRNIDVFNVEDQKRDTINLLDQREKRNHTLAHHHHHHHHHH
# Protocol: (§1) ELISA was carried out in 96 well plates coated overnight with sGP73 or GP73 AVRR and blocked with 2% gelatine. Antibodies 8A10, G2-2opti (IgG2a) or isotype control antibody were applied, incubated for 1.5 hours and washed away. A secondary Horse radish peroxidase labeled anti mouse antibody was added for 1 hour and after extensive washing a chromogenic substrate (TMB Amersham) was applied to detect peroxidase.
# [7] = target: T5, GP73-10×His AVRR, encompassing GP73 AA36 to 401 with a R52A mutation (human, UniProt Q8NBJ4 36-401); test: ELISA on coated GP73-His AVRR, anti mouse HRP secondary
# T5 construct: also called GP73 AVRR; GP73-His AVRR
# T5 sequence: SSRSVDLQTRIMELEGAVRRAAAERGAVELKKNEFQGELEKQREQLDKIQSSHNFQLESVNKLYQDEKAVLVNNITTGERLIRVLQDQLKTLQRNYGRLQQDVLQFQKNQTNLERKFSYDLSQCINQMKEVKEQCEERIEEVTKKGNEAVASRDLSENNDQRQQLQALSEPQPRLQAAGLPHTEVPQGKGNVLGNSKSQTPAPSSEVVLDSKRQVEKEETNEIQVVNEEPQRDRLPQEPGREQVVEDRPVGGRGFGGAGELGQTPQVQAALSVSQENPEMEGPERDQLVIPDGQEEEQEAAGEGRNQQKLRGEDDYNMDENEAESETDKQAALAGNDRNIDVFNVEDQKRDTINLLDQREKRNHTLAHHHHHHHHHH
# Protocol: as §1
# [8] = target: T3, peptide AA 36-55 of GP73 (rGP73), …; test: peptide ELISA on coated biotinylated rGP73 AA36-55, anti mouse HRP secondary
# Protocol: ELISA was carried out in 96 well plates coated overnight with the biotinylated peptide gp73 AA 36-55 or an unrelated peptide and blocked with 2% gelatine. Antibodies 8A10, G2-2opti (IgG2a) or isotype control antibody (IgG2a) were applied, incubated for 1.5 hours and then washed away. A secondary horse radish peroxidase labeled anti mouse antibody was added for 1 hour and after extensive washing a chromogenic substrate (TMB Amersham) was applied to detect peroxidase.
binder,measurement,setting,value
B1,binding result,[1],binds
same,binding result,[2],binds
B2,binding result,[3],binds
same,Kd,[4],4.29 nM
same,koff,[4],0.00111 s⁻¹
same,kon,[4],260000 M⁻¹ s⁻¹
B3,binding result,[5],binds
B4,binding result,[6],no binding (tested: 5.0 ug/ml)
same,binding result,[7],binds
same,binding result,[8],binds
B5,Kd,[4],3.02 nM
same,koff,[4],0.00198 s⁻¹
same,kon,[4],635000 M⁻¹ s⁻¹
